Assays:
[1] = target: T1, human IL-1β (human, UniProt P01584 117-269); experiment: cell-based or functional assay
[2] = target: T2, cynomolgus IL-1β (cynomolgus macaque, UniProt P79182 117-268); experiment: cell-based or functional assay
T2 sequence (looked up): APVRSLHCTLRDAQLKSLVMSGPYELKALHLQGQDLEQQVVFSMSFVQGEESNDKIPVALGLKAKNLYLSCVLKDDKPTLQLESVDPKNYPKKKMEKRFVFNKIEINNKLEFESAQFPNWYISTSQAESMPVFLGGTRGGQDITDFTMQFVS

[3] = target: T1, human IL-1β; experiment: cell-based or functional assay; remark: listed apart in the source
[4] = target: T1, human IL-1β; experiment: SPR, Biacore 8K, mAb captured on goat anti-human Fc C1 chip, soluble IL-1β as analyte, 1:1 Langmuir fit
Method: (§1) Affinity assessment of 05H21A, 15N14A, and 08F17A against human IL-1β was performed by Surface Plasmon Resonance (SPR) using a Biacore 8k. Cross-reactivity of the same antibody panel was also assessed against cyno, mouse, rat and pig IL-1β.
(§2) SPR is a label-free technique to study the strength of an interaction between two binding partners by measuring the change in mass upon complex formation and dissociation. Briefly, antibodies were immobilized on a sensor chip which was coupled with goat anti-human Fc (GAH-Fc C1 sensor chip). Soluble IL-1β was flowed over the immobilized antibody and association/dissociation responses were monitored. Kinetic information (on-rate and off-rate constants) were extracted by fitting sensorgrams to the 1:1 Langmuir model. Binding affinity (KD) were reported as the ratio of rate constants (koff/kₒₙ).

[5] = target: T2, cynomolgus IL-1β; experiment: as above
Method: as §1, §2

[6] = target: T1, human IL-1β; experiment: cell-based or functional assay; remark: listed apart in the source
[7] = target: T3, mouse IL-1β (mouse, UniProt P10749 118-269); experiment: SPR, Biacore 8K, mAb captured on anti-human Fc chip, soluble IL-1β as analyte
T3 construct: also called mouse IL-β
T3 sequence (looked up): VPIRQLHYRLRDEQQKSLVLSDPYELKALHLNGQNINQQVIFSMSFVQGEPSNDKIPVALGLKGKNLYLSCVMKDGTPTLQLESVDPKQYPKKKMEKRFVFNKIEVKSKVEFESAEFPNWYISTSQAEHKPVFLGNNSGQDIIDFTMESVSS
Method: as §1, §2

[8] = target: T4, pig IL-1β (pig, UniProt P26889 115-267); experiment: as above
T4 construct: also called pig IL-β
T4 sequence (looked up): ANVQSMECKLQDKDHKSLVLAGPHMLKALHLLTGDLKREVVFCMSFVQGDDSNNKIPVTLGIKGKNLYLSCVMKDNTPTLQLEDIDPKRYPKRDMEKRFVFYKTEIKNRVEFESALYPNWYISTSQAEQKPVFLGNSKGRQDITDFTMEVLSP
Method: as §1, §2

[9] = target: T5, rat IL-1β (rat, UniProt Q63264 117-268); experiment: as above
T5 construct: also called rat IL-β
T5 sequence (looked up): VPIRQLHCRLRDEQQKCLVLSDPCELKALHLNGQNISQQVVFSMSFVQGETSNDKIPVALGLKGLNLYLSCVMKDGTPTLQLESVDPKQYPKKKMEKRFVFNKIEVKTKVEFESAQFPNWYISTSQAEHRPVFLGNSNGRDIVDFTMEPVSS
Method: as §1, §2

IC30, inhibition of rhIL-1β-induced cytokine release, NHDF donor 29114 [1]: 0.087 nM
IC30, inhibition of rhIL-1β-induced cytokine release, NHLF donor 34325 [1]: 0.127 nM
IC30, inhibition of rhIL-1β-induced cytokine release, NHLF donor 35234 [1]: 0.09 nM
IC50, inhibition of rhIL-1β-induced cytokine release, NHDF donor 29114 [1]: 0.174 nM
IC50, inhibition of rhIL-1β-induced cytokine release, NHLF donor 34325 [1]: 0.293 nM
IC50, inhibition of rhIL-1β-induced cytokine release, NHLF donor 35234 [1]: 0.207 nM
IC90, inhibition of rhIL-1β-induced cytokine release, NHDF donor 29114 [1]: 1.07 nM
IC90, inhibition of rhIL-1β-induced cytokine release, NHLF donor 34325 [1]: 2.55 nM
IC90, inhibition of rhIL-1β-induced cytokine release, NHLF donor 35234 [1]: 1.8 nM
IC30, inhibition of G-CSF release, cynomolgus lung fibroblasts (CLF), 15 pM rcynoIL-1β [2]: 3.58 nM
IC30, inhibition of IL-6 release, cynomolgus dermal fibroblasts (CDF), 5 pM rcynoIL-1β [2]: 2.72 nM
IC30, inhibition of IL-6 release, cynomolgus lung fibroblasts (CLF), 15 pM rcynoIL-1β [2]: 3.44 nM
IC50, inhibition of G-CSF release, cynomolgus dermal fibroblasts (CDF), 5 pM rcynoIL-1β [2]: 3.24 nM
IC50, inhibition of G-CSF release, cynomolgus lung fibroblasts (CLF), 15 pM rcynoIL-1β [2]: 6.11 nM
IC50, inhibition of IL-6 release, cynomolgus dermal fibroblasts (CDF), 5 pM rcynoIL-1β [2]: 5.1 nM
IC50, inhibition of IL-6 release, cynomolgus lung fibroblasts (CLF), 15 pM rcynoIL-1β [2]: 6.97 nM
IC90, inhibition of G-CSF release, cynomolgus lung fibroblasts (CLF), 15 pM rcynoIL-1β [2]: 24.3 nM
IC90, inhibition of IL-6 release, cynomolgus dermal fibroblasts (CDF), 5 pM rcynoIL-1β [2]: 25.9 nM
IC90, inhibition of IL-6 release, cynomolgus lung fibroblasts (CLF), 15 pM rcynoIL-1β [2]: 43.6 nM
IC30, inhibition of rhIL-1β-induced CXCL5 release, human whole blood (5 donors) [3]: 1.33 nM
IC30, inhibition of rhIL-1β-induced G-CSF release, human whole blood (5 donors) [3]: 0.704 nM
IC30, inhibition of rhIL-1β-induced IL-6 release, human whole blood (5 donors) [3]: 0.872 nM
IC50, inhibition of rhIL-1β-induced CXCL5 release, human whole blood (5 donors) [3]: 2.86 nM
IC50, inhibition of rhIL-1β-induced G-CSF release, human whole blood (5 donors) [3]: 1.31 nM
IC50, inhibition of rhIL-1β-induced IL-6 release, human whole blood (5 donors) [3]: 1.53 nM
IC90, inhibition of rhIL-1β-induced CXCL5 release, human whole blood (5 donors) [3]: 20.8 nM
IC90, inhibition of rhIL-1β-induced G-CSF release, human whole blood (5 donors) [3]: 6.58 nM
IC90, inhibition of rhIL-1β-induced IL-6 release, human whole blood (5 donors) [3]: 6.56 nM
Kd [4]: 0.18 nM
Kd [5]: 1.71 nM
koff [5]: 0.000295 s⁻¹
kon [5]: 172000 M⁻¹ s⁻¹
IC30, inhibition of IL-6 release, human PBMCs (n=5 donors), 10 pM rhIL-1β [6]: 52 pM
IC30, inhibition of IL-6 release, human PBMCs (n=5 donors), 30 pM rhIL-1β [6]: 0.156 nM
IC50, inhibition of IL-6 release, human PBMCs (n=5 donors), 10 pM rhIL-1β [6]: 92 pM
IC50, inhibition of IL-6 release, human PBMCs (n=5 donors), 30 pM rhIL-1β [6]: 0.241 nM
IC90, inhibition of IL-6 release, human PBMCs (n=5 donors), 10 pM rhIL-1β [6]: 0.402 nM
IC90, inhibition of IL-6 release, human PBMCs (n=5 donors), 30 pM rhIL-1β [6]: 0.744 nM
binding result [7]: no binding
binding result [8]: no binding
binding result [9]: no binding
B1: 08F17A (antibody, human IgG1, kappa, V domains shown)
VH: EVQLVESGGGLVTPGGSLRLSCAASGFTFSGYSMNWVRQAPGKGLEWVSSISSSSGYIYYADSVKGRFTISRDNAKNSLYLQMNSLRAEDTAVYYCAREYWGSGFDYWGQGTLVTVSS
VL: DIQMTQSPSSLSASVGDRVTITCRASQGISYYLAWYQQKPGKVPKLLISAEFTLQSGVPSRFSGSGSGTDFTLTISSLQPEDVATYYCQKYNTAPRTFGQGTKVEIKR
notes: Kappa light chain; also called 08F17A (anti-IL-1β) mAb [IgG1: YTE]

— patent publication US20230227545A1 (published 2023)
